The results in this text go back to US20100210517A1 (RAPTOR PHARMACEUTICAL, published 2010).

Where a chain is given by its changes, count along the chain named.

The target in assay [1] is T1, LRP2 CR89 R1088D (human, UniProt P98164 1022-1105).
T1 construct: also called YVWD
Kind of assay: solid-phase assay on coated CR protein, anti-RAP detection, A450. As for the experimental part: (§1) Solid phase binding assays-Purified, refolded CR protein (1 μg) was bound to Nunc Maxisorp™ 96-well plates in TBS pH 8 supplemented with 5 mM CaCl₂ (TBSC) overnight at 4° C. Wells were washed with TBSC and then blocked with TBSC containing 2% bovine serum albumin (BSA). […] Control wells contained no added ligand. As an additional control, to determine whether the absence of calcium affected binding, 10 mM EGTA was included in the incubation medium for some samples. […] Excess primary antibody was removed and wells washed before incubation with the secondary antibody, HRP-conjugated goat anti rabbit IgG (Bio-Rad). After washing, TMB substrate solutions (Bio-Rad) were added to detect HRP. Color development was stopped with 1N HCl. Absorption at 450 nm was measured with a microplate spectrophotometer (Molecular Devices). Data were plotted and Kd values derived by non-linear regression with the assumption of single-site binding (GraphPad Prism).
(§2) To test this idea, mutant LRP2 CR89 were prepared in which the native, non-canonical residues at these positions were sequentially substituted with the non-native, canonical residues. As defined above, the A, C, A′, C′ string for LRP2 CR89 is YVWR. Mutants included LRP2 CR89 Y1042W (WVWR), LRP2 CR89 V1047D (YDWR), LRP2 CR89 R1088D (YVWD), LRP2 CR89 V1047D R1088D (YDWD), LRP2 CR89 Y1042W V1047D R1088D (WDWD), LRP2 CR89 Y1042W V1047D (WDWR), LRP2 CR89 Y1042W R1088D (WVWD).

The target of assay [2] is T2, LRP2 CR89 Y1042W V1047D (human, UniProt P98164 1022-1105).
T2 construct: also called WDWR
T2 chain: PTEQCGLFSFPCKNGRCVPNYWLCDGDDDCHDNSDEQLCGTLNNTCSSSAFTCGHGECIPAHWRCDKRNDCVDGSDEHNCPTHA
Kind of assay: solid-phase assay; OD at the highest ligand concentration as percent of the highest OD of all ligands. As for the experimental part: as §1, §2

Assay [3] has as its target T3, LRP2 CR89 Y1042W R1088D (human, UniProt P98164 1022-1105).
T3 construct: also called WVWD
T3 chain: T2 chain with D27V, R68D
Described as above. The procedure:
as §1, §2

Assay [4] concerns the target T4, LRP2 CR89 V1047D R1088D (human, UniProt P98164 1022-1105).
T4 construct: also called YDWD
T4 sequence: T2 chain with W22Y, R68D
The description is as above. The procedure: as §1, §2

In assay [5] the target is T5, LRP2 CR89 Y1042W V1047D R1088D (human, UniProt P98164 1022-1105).
T5 construct: also called WDWD
T5 chain: T2 chain with R68D
The assay is described as above. As for the experimental part:
as §1, §2

The target of assay [6] is T6, LRP2 CR89 V1047D (human, UniProt P98164 1022-1105).
T6 construct: also called YDWR
T6 sequence: T2 chain with W22Y
The assay is described as above. As for the experimental part:
as §1, §2

Assay [7] addresses T7, LRP2 CR89 (human, UniProt P98164 1025-1102).
T7 construct: domain: CR89; also called YVWR; L2 CR89; not shown: N-terminal hexahistidine and S-peptide tags of pET30(+)a
Described as above. As for the experimental part: as §1, §2

Assay [8] addresses T1, LRP2 CR89 R1088D. The description is as above. As for the experimental part: as §1, §2
In assay [9] the target is T8, LRP1 CR3-5 (human).
T8 construct: range 852-973; also called L1 CR3-5
T8 sequence (Q07954 852-973): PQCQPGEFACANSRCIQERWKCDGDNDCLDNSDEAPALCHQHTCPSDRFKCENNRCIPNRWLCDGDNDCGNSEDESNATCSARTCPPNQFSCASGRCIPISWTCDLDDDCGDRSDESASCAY
The description is as above. As for the experimental part:
as §1

Assay [10] has as its target T7, LRP2 CR89. The description is as above. The procedure:
as §1
The source holds these as a separate data set.

Assay [11] deals with T8, LRP1 CR3-5. Kind of assay: solid-phase assay on coated CR protein, single-site non-linear fit. The procedure:
Data were plotted and fitted by non-linear regression with the assumption of a single binding site (GraphPad Prism). Kd values with standard deviations were derived from the regression analysis.
as §1

The target of assay [12] is T9, VLDLR CR6-8 (human, UniProt P98155 235-358).
T9 construct: range 235-358; also called V CR6-8; not shown: N-terminal hexahistidine and S-peptide tags of pET30(+)a
Briefly: solid-phase binding assay, CR protein coated on plate, anti-RAP detection.

The target in assay [13] is T8, LRP1 CR3-5. The description is as above.
The target in assay [14] is T7, LRP2 CR89. The description is as above.
Assay [15] concerns the target T8, LRP1 CR3-5. Briefly: apparent Kd of the variant for the CR pair used in selection; no unit printed in Table 4, nM per Table 2 and paragraph 292.
The target of assay [16] is T10, LRP2 CR2728 (human, UniProt P98164 3552-3631).
T10 construct: domain: CR2728; Its cloning is not described in the methods; not shown: N-terminal hexahistidine and S-peptide tags of pET30(+)a
T10 sequence (looked up): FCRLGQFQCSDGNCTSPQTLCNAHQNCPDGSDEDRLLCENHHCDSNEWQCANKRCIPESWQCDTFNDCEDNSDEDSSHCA
Briefly: solid-phase assay on coated CR protein, each ligand at 80 nM, blank-corrected absorbance. The procedure: (§3) Samples were tested twice, in duplicate, and values combined. Means and standard deviations were then calculated. Blank values obtained from wells incubated in the absence of ligand were used to correct absorbance data.
as §1

Assay [17] concerns the target T11, LRP2 CR3031 (human, UniProt P98164 3677-3755).
T11 construct: domain: CR3031; Its cloning is not described in the methods; not shown: N-terminal hexahistidine and S-peptide tags of pET30(+)a
The assay is described as above. The procedure: as §3, §1

In assay [18] the target is T12, MAT CR12 (human, UniProt Q9Y5Y6 452-524).
T12 construct: also called ST14 CR12; matriptase CR12
T12 sequence: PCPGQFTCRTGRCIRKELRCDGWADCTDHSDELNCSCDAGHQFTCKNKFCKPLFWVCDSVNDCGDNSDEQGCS
Described as above. The procedure: as §3, §1

T7 sequence (P98164 1025-1102): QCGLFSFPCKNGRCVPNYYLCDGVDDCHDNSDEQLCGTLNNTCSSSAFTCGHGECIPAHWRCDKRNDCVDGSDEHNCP
T11 sequence (P98164 3677-3755): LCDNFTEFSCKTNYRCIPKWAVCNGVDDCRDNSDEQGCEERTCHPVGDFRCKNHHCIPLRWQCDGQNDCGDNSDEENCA

B1: RAP d3 (wild-type domain 3 of human RAP, amino acids 201-319 of mature RAP) (ligand)
chain: LDRLRRVSHQGYSTEAEFEEPRVIDLWDLEQSANLTDKELEAFREELKHFEAKIEKHNHYQKQLEIAHEKLRHAESVGDGERVSRSREKHALLEGRTKELGYTVKKHLQDLSGRISRAR
notes: Expressed in E. coli from pET30(+)a, Ni-NTA purified; also called wild-type RAP d3; recombinant RAP d3; not shown: N-terminal hexahistidine and S-peptide tags of pET30(+)a
For the molecule B1, the binding result in assay [1] is “no binding (tested: 100 nM)”; in assay [16], “no binding (tested: 80 nM)”; in [17], “no binding (tested: 80 nM)”; in [18], “no binding (tested: 80 nM)”. The “% max bind” value in assay [2] came to 11%; in assay [3], 16%; in assay [4] it was 6%; in assay [5] it was 15%; in assay [6], 6%; in assay [7], 7%. For the same molecule, the “% max bind” value in assay [8] turned out to be 7%. Further, the “% max” value came out at 76% in assay [9] and 5% in assay [10]. The Kd was 16 nM in assay [11]; above 300 nM in assay [12]; 11 nM in [13]; above 300 nM in assay [14]; 16 nM in assay [15].
